# Assay results as given in the supplement of paper PMC9732359.
# ± gives the uncertainty stated by the source.
# Assay: protein stability index of a GFP-peptide fusion (yeast GPS) (PSI 1-4); higher = more stable; sorted into four equal gates, so the index is relative within each strain
# In short: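 Peptides tiling yeast proteins in 17-residue segments were fused downstream of GFP, with Cherry expressed from the same plasmid. As a pooled library in yeast, mid-log cultures grown in leucine-free medium were sorted into four equal gates by GFP/Cherry fluorescence ratio. Gate plasmids were PCR-amplified and Illumina-sequenced, and barcodes linked reads to strains. Each peptide received a protein stability index equal to the sum of each gate's read frequency times its gate number.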
Sequence,protein stability index (ubr1∆),protein stability index (doa10∆),protein stability index (pdr5∆),protein stability index (san1∆)
GKTDYYQRKRLVTQHKA [RPL5],3.69 ± 0.22,,,
RYFFYLSKINAIQLDYS [RPN3],1.33 ± 0.044,1.31 ± 0.057,1.23 ± 0.058,1.34 ± 0.15
ANGTVVSFIKNGEEIVG [MTR3],1.91 ± 0.11,1.34 ± 0.07,1.6 ± 0.13,1.45 ± 0.21
LHYLKKFKHIDDKYGRK [SRP72],2.85 ± 0.041,2.91 ± 0.061,2.88 ± 0.057,3.07 ± 0.055
ERKEQEEKEKEQSKEVG [BRN1],3.45 ± 0.14,3.48 ± 0.21,,3.49 ± 0.11
NEQEEKSEEVKAEDDTG [RPC37],2.85 ± 0.17,3.2 ± 0.17,,2.94 ± 0.2
ADVHFLDCDGGFIDASC [RRP45],2.9 ± 0.054,3.12 ± 0.09,2.9 ± 0.098,3.14 ± 0.055
NEKEQLSFINPKTGKVE [SEC65],2.99 ± 0.059,2.98 ± 0.11,2.89 ± 0.11,2.98 ± 0.064
DMPCDVLAKRMANLSQI [SCL1],1.61 ± 0.076,1.71 ± 0.09,1.4 ± 0.064,1.6 ± 0.17
ALNNAIPGGPKFEPLYP [PRP8],3.06 ± 0.046,3.1 ± 0.069,2.96 ± 0.086,2.95 ± 0.09
PKNSKTPQSKGFVRNSF [RPO31],3.18 ± 0.068,3.17 ± 0.15,3.03 ± 0.14,2.92 ± 0.12
EIEVDEMEVDAEGEEVE [RPN1],3.49 ± 0.067,3.52 ± 0.084,3.68 ± 0.12,3.52 ± 0.082
YQCAMGKQAIGAIAYNQ [RET1],2.65 ± 0.049,2.55 ± 0.053,2.76 ± 0.06,2.78 ± 0.047
HSKFRSSSGNTWSLILN [YML031W/NDC1],3.12 ± 0.077,2.75 ± 0.1,2.72 ± 0.099,3.15 ± 0.078
DEIYIPINGNEAESQWY [CSI1],3.31 ± 0.064,2.63 ± 0.065,3.13 ± 0.06,3.11 ± 0.07
SNQLISNYAASNSMDRS [SWI1],3.09 ± 0.12,3.11 ± 0.18,3.19 ± 0.15,3.27 ± 0.12
IDRNSTILYLNVFHGLC [IRR1],2.78 ± 0.17,2.41 ± 0.14,1.52 ± 0.084,2.14 ± 0.25
LSKMENVNLDDYPDDSG [NAS6],3.05 ± 0.091,2.75 ± 0.11,3.02 ± 0.11,2.83 ± 0.088
CFSQENIEEMARVILYL [SIN4],2.76 ± 0.054,2.47 ± 0.083,2.76 ± 0.14,2.79 ± 0.095
TASSEASAGSKEGASTN [YMR153W/NUP53],3.39 ± 0.12,3.09 ± 0.2,3.23 ± 0.14,3.32 ± 0.16
IYDKKDHKYVCTFSMEP [SRB8],3 ± 0.069,2.85 ± 0.076,2.99 ± 0.11,2.78 ± 0.06
GGKIINKLGNDPSLNLK [BRR2],2.16 ± 0.057,2.27 ± 0.059,1.76 ± 0.073,1.91 ± 0.072
AFLALVDAGIALNSMCA [RRP46],2.59 ± 0.076,2.27 ± 0.096,2.69 ± 0.11,1.7 ± 0.08
SRKRKPKSASNTSSKRQ [IRR1],3.09 ± 0.069,2.86 ± 0.1,2.7 ± 0.14,2.89 ± 0.085
QGTNSVPNSIGNIFSNI [SNF5],2.98 ± 0.052,2.91 ± 0.068,3.12 ± 0.095,3.15 ± 0.12
DGMDAAHIEKQSLDTIG [RPO21],3.05 ± 0.083,3.36 ± 0.088,3.29 ± 0.095,3.24 ± 0.093

Sequence,protein stability index (ubr1∆),protein stability index (doa10∆),protein stability index (pdr5∆),protein stability index (san1∆)
KLKDSKKLFQKKENLTR [YML103C/NUP188],3.25 ± 0.1,2.57 ± 0.12,3.3 ± 0.1,2.97 ± 0.11
LELGSCFSQENIEEMAR [SIN4],2.64 ± 0.073,2.02 ± 0.06,2.21 ± 0.073,2.64 ± 0.078
SQQAGLDPYERAIYSYL [YDL116W/NUP84],2.83 ± 0.099,2.81 ± 0.12,3.19 ± 0.083,
SNMFDNSADVDMDAQGR [YGL100W/SEH1],3.29 ± 0.062,3.42 ± 0.085,3.55 ± 0.076,3.5 ± 0.057
EGNAGGDQKTSENRNNI [YOR098C/NUP1],3.36 ± 0.074,,3.6 ± 0.17,3.19 ± 0.17
DRGIANIRNNIESQNLD [SRB4],3.07 ± 0.067,3.12 ± 0.14,3.34 ± 0.12,2.98 ± 0.11
YKLFIWLVVPTIYNLQH [YML031W/NDC1],1.26 ± 0.029,1.36 ± 0.033,1.51 ± 0.032,1.36 ± 0.059
LGQERATDLAGPANNPN [PRP8],3.17 ± 0.057,2.94 ± 0.048,3.04 ± 0.068,2.95 ± 0.053
QSVYNDEKLKTEKLKND [SRB8],3.36 ± 0.22,,3.74 ± 0.21,3.21 ± 0.18
LNITTVFSHAQTAVTCE [RPS27A],2.09 ± 0.052,2.38 ± 0.043,2.21 ± 0.047,2.08 ± 0.063
TNDGIERYSDKYLKKRK [RPC31],2.88 ± 0.091,3.23 ± 0.13,2.98 ± 0.18,3.43 ± 0.15
IDQVMMSVSDNDQALIK [RET1],3.01 ± 0.051,2.9 ± 0.054,3.06 ± 0.066,3.13 ± 0.048
TPLRDEVTDKNYYYLFD [PRP8],3.11 ± 0.059,2.98 ± 0.068,2.55 ± 0.049,3.03 ± 0.048
PAPINSLSRDFVMKTRR [SNU114],3.15 ± 0.051,3.15 ± 0.081,2.95 ± 0.064,2.97 ± 0.049
TYNEDIPVEILVRRLSD [PRE9],2.85 ± 0.059,3.06 ± 0.079,2.84 ± 0.077,3.14 ± 0.064
LGVTYSSPTLATGFGAH [PRE4],1.62 ± 0.12,2.41 ± 0.078,2.29 ± 0.12,2.48 ± 0.087
RIGTIVHKERHDGGFDL [RPS4A],1.99 ± 0.23,,2.54 ± 0.16,1.65 ± 0.17
SQDTKVICSVTGPIEPK [RRP46],2.12 ± 0.076,1.68 ± 0.07,1.72 ± 0.072,1.94 ± 0.11
TEKLSNGFSFTKFNHNK [YOR098C/NUP1],2.94 ± 0.063,3.02 ± 0.089,3.14 ± 0.064,3.02 ± 0.037
ENIEPLDPINLPLDSQD [PRP8],3.04 ± 0.067,2.87 ± 0.078,2.97 ± 0.089,2.49 ± 0.11
TKLGFTFTIKEFVSYYY [SNU114],1.76 ± 0.041,1.88 ± 0.054,2.02 ± 0.054,1.73 ± 0.067
IFSQTTNSTYNPASATD [YJL039C/NUP192],2.63 ± 0.046,2.83 ± 0.054,2.69 ± 0.071,2.46 ± 0.054
LSAPLSKELRAQYGIKA [RPL26A],1.87 ± 0.15,2.91 ± 0.14,2.31 ± 0.12,3.48 ± 0.12
FGELQFAFLNAMFFGNY [AAR2],3 ± 0.064,2.87 ± 0.069,2.61 ± 0.085,2.94 ± 0.067
DLKNTRMKSITSTSQKI [SNF5],3.08 ± 0.05,3.23 ± 0.082,3.14 ± 0.074,3.17 ± 0.045
DVNLDVRIHSIQVLTEA [IRR1],2.84 ± 0.13,2.19 ± 0.15,2.84 ± 0.2,2.78 ± 0.18
